Consider 6 molecules from patent publication US20010029293A1.

Sequences and labels used below:
B1: ICAM-R peptide 32-38 (peptide)
peptide: EKIALET
B2: ICAM-1 peptide 228-232 (GDQRL) (peptide)
peptide: GDQRL
B3: ICAM-R peptide 230-234 (GDQML) (peptide)
peptide: GDQML
B4: ICAM-1 peptide 70-74 (DGQST) (peptide)
peptide: DGQST
B5: ICAM-R peptide 72-76 (NGSQI) (peptide)
peptide: NGSQI
B6: ICAM-R peptide 271-276 (peptide)
peptide: GERREA

The assay has as its target CD18-independent counterreceptor for ICAM-R on Jurkat cells. As to the kind of experiment: cell adhesion to coated shICAM-R, peptide 1-2 mg/ml.
B1 displayed a % Inhibition CD18-Independent Binding (Jurkat) of 10%.
In turn, B2 gave a % Inhibition CD18-Independent Binding (Jurkat) of 22%.
B3: the % Inhibition CD18-Independent Binding (Jurkat) was 36%.
In turn, B4 yielded a % Inhibition CD18-Independent Binding (Jurkat) of 9%.
Turning to B5, the % Inhibition CD18-Independent Binding (Jurkat) is 17%.
Molecule B6 came in with a % Inhibition CD18-Independent Binding (Jurkat) of 11%.
